Test results as given in patent US20260242478A1 (published 2026).
Where no end group is shown, it is not given here.

Assays:
[1] = biological target: T1, Anti-PSMA Fab (SEQ ID NOs: 19, 20); assay: phage ELISA; PSMA Fab on plate pre-incubated with PSMA antigen as competitor, anti-M13 HRP detection;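 further: crude clonal phage supernatants added to Fab-coated wells still holding PSMA antigen in blocking buffer, with bound phage as read-out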
T1 construct: Biotinylated PSMA Fab captured on neutravidin coated plates in the phage ELISA; also called 006 PSMA Fab
Description: (§1) Clonal phage were harvested as crude supernatants and screened via standard ELISAs. […] Prior to the addition of clonal phage. wells were incubated with blocking buffer and PSMA antigen or blocking buffer alone. Without washing or aspirating, clonal phage supernatants were then added to the wells and incubated for a short time. Wells were then washed followed by detection of bound phage using a horse radish conjugated anti-M13 antibody.

[2] = biological target: T1, Anti-PSMA Fab (SEQ ID NOs: 19, 20); assay: phage ELISA; biotinylated PSMA Fab on neutravidin plate, clonal phage supernatant, anti-M13 HRP detection;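 further: wells preincubated with PSMA antigen in blocking buffer or with blocking buffer only before clonal phage were added for a short incubation, then bound phage detected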
Description: as §1

[3] = biological target: T2, Anti-PSMA Fab (SEQ ID NOs: 19, 20); assay: phage binding ELISA; Fab-coated wells pre-incubated with PSMA antigen as competitor, anti-M13-HRP detection;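 further: clonal phage supernatants screened, with reference wells given blocking buffer only (no PSMA antigen) before phage were added for a brief incubation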
T2 construct: Biotinylated and captured on neutravidin coated plates in the phage ELISA; also called 006 PSMA Fab
Description: as §1

[4] = biological target: T2, Anti-PSMA Fab (SEQ ID NOs: 19, 20); assay: phage binding ELISA; biotinylated PSMA Fab on neutravidin plate, clonal phage detected with anti-M13-HRP
Description: as §1

[5] = biological target: T3, Anti-PSMA Fab (SEQ ID NOs: 19, 20); assay: phage ELISA; captured PSMA Fab pre-incubated with PSMA antigen as competitor, anti-M13 HRP detection
T3 construct: Biotinylated and captured on neutravidin coated plates in the phage ELISA; also called 006 PSMA Fab
Description: as §1

[6] = biological target: T3, Anti-PSMA Fab (SEQ ID NOs: 19, 20); assay: phage ELISA; biotinylated PSMA Fab captured on neutravidin plate, clonal phage supernatant, anti-M13 HRP detection
Description: as §1

[7] = biological target: T4, Anti-PSMA Fab (SEQ ID NOs: 19, 20); assay: phage ELISA; biotinylated PSMA Fab on neutravidin plate pre-incubated with PSMA antigen as competitor, anti-M13-HRP detection
T4 construct: also called 006 PSMA Fab
Description: as §1

[8] = biological target: T4, Anti-PSMA Fab (SEQ ID NOs: 19, 20); assay: phage ELISA; biotinylated PSMA Fab on neutravidin plate, clonal phage supernatant, anti-M13-HRP detection;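 further: wells were preincubated with blocking buffer containing PSMA antigen or with blocking buffer only, then phage supernatant was added without washing for a brief incubation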
Description: as §1

Row | Binder | Phage binding ELISA, Anti-PSMA Fab signal in the presence of PSMA [1] | Phage binding ELISA, Anti-PSMA Fab (SEQ ID NOs: 19, 20) signal [2] | Phage binding ELISA, Anti-PSMA Fab signal in the presence of PSMA [5] | Phage binding ELISA, Anti-PSMA Fab (SEQ ID NOs: 19, 20) signal [6] | other results
1 | IEKWCTPAWMCYGI (Clonal phage of the Peptide-180 library, tested as crude supernatant; not shown: fused to the pIII filament of the bacteriophage) [Phage-2152] | 0.077 | 1.68 | – | – | –
2 | HEKLCIPWWMCEDH (tested as crude clonal phage supernatant) [Phage-2182] | – | – | – | – | Anti-PSMA Fab signal in the presence of PSMA [3]: 0.0868; Anti-PSMA Fab (SEQ ID NOs: 19, 20) signal [4]: 1.64
3 | DIRWCIPDWMCTET (Clonal phage of the peptide-180 library, tested as crude supernatant; not shown: pIII of the bacteriophage, to which the peptide is fused) [Phage-2164] | – | – | 0.0725 | 1.65 | –
4 | VHIWCIPQWMCMDR (Clonal phage of the Peptide-180 library, tested as crude supernatant; not shown: fused to the pIII filament of the bacteriophage) [Phage-2150] | 0.202 | 1.68 | – | – | –
5 | YEIRCIPPWMCAFD (Clonal phage of the Peptide-180 library, tested as crude supernatant; not shown: fused to the pIII filament of the bacteriophage) [Phage-2151] | 0.117 | 1.68 | – | – | –
6 | VEKWCIPQWMCVSQ (Clonal phage of the Peptide-180 library, tested as crude supernatant; not shown: fused to the pIII filament of the bacteriophage) [Phage-2147] | 0.0673 | 1.69 | – | – | –
7 | GEKWCIPEWMCVHL (Clonal phage of the peptide-180 library, tested as crude supernatant; not shown: pIII of the bacteriophage, to which the peptide is fused) [Phage-2168] | – | – | 0.065 | 1.65 | –
8 | YVNWCTPEWMCVGF (Clonal phage of the peptide-180 library, tested as crude supernatant; not shown: pIII of the bacteriophage, to which the peptide is fused) [Phage-2174] | – | – | 0.0598 | 1.64 | –
9 | GSHWCIPPWMCQMS (Clonal phage of the peptide-180 library, tested as crude supernatant; not shown: pIII of the bacteriophage, to which the peptide is fused) [Phage-2163] | – | – | 0.0821 | 1.66 | –
10 | SLHLCIPQWMCGIS (cysteine pairing not given here; also: displayed on bacteriophage as fusion to pIII, tested as crude clonal phage supernatant) [Phage-2177] | – | – | – | – | Anti-PSMA Fab signal in the presence of PSMA [3]: 0.0806; Anti-PSMA Fab (SEQ ID NOs: 19, 20) signal [4]: 1.64
11 | FERWCIPAWMCQSD (Clonal phage of the Peptide-180 library, tested as crude supernatant; not shown: fused to the pIII filament of the bacteriophage) [Phage-2158] | 0.066 | 1.66 | – | – | –
12 | VQKWCVPEWMCGSW (Clonal phage of the peptide-180 library, tested as crude supernatant; not shown: pIII of the bacteriophage, to which the peptide is fused) [Phage-2167] | – | – | 0.0837 | 1.65 | –
13 | MVNWCTPPWMCWGF [Phage-2145] | – | – | – | – | Phage binding ELISA, Anti-PSMA Fab signal in the presence of PSMA [7]: 0.194; Phage binding ELISA, Anti-PSMA Fab (SEQ ID NOs: 19, 20) signal [8]: 1.69
14 | MAMMCIPPWMCDTM (Clonal phage of the peptide-180 library, tested as crude supernatant; not shown: pIII of the bacteriophage, to which the peptide is fused) [Phage-2172] | – | – | 0.0889 | 1.65 | –
15 | AEKWCIPNWMCEAG [Phage-2144] | – | – | – | – | Phage binding ELISA, Anti-PSMA Fab signal in the presence of PSMA [7]: 0.0588; Phage binding ELISA, Anti-PSMA Fab (SEQ ID NOs: 19, 20) signal [8]: 1.69
16 | VVPWCIPVWMCNSQ (Clonal phage of the peptide-180 library, tested as crude supernatant; not shown: pIII of the bacteriophage, to which the peptide is fused) [Phage-2165] | – | – | 0.0957 | 1.65 | –
17 | DENWCKPLWMCKGF (Clonal phage of the peptide-180 library, tested as crude supernatant; not shown: pIII of the bacteriophage, to which the peptide is fused) [Phage-2170] | – | – | 0.105 | 1.65 | –
18 | YEKWCTPAWMCEYQ (Clonal phage of the peptide-180 library, tested as crude supernatant; not shown: pIII of the bacteriophage, to which the peptide is fused) [Phage-2166] | – | – | 0.0648 | 1.65 | –
19 | VWHWCTPPWMCNAE [Phage-2143] | – | – | – | – | Phage binding ELISA, Anti-PSMA Fab signal in the presence of PSMA [7]: 0.141; Phage binding ELISA, Anti-PSMA Fab (SEQ ID NOs: 19, 20) signal [8]: 1.69
20 | EMKWCIPDWMCAAG (Clonal phage of the Peptide-180 library, tested as crude supernatant; not shown: fused to the pIII filament of the bacteriophage) [Phage-2161] | 0.0716 | 1.66 | – | – | –
21 | SAPWCIPEWMCFSL [Phage-2146] | – | – | – | – | Phage binding ELISA, Anti-PSMA Fab signal in the presence of PSMA [7]: 0.101; Phage binding ELISA, Anti-PSMA Fab (SEQ ID NOs: 19, 20) signal [8]: 1.69

Row | Binder | Phage binding ELISA, Anti-PSMA Fab signal in the presence of PSMA [1] | Phage binding ELISA, Anti-PSMA Fab (SEQ ID NOs: 19, 20) signal [2] | Phage binding ELISA, Anti-PSMA Fab signal in the presence of PSMA [5] | Phage binding ELISA, Anti-PSMA Fab (SEQ ID NOs: 19, 20) signal [6] | other results
22 | ENKWCIPTWMCAHE (cysteine pairing not given here; also: displayed on phage, fused to pIII, Clonal phage of the peptide-180 library, tested as crude supernatant; not shown: pIII of the bacteriophage, to which the peptide is fused) [Phage-2173] | – | – | 0.0646 | 1.64 | –
23 | EVKLCRPPWMCEIF (Clonal phage of the peptide-180 library, tested as crude supernatant; not shown: pIII of the bacteriophage, to which the peptide is fused) [Phage-2162] | – | – | 0.0633 | 1.66 | –
24 | VHMRCIPEWMCQVF (tested as crude clonal phage supernatant) [Phage-2183] | – | – | – | – | Anti-PSMA Fab signal in the presence of PSMA [3]: 0.071; Anti-PSMA Fab (SEQ ID NOs: 19, 20) signal [4]: 1.63
25 | LDKLCIPSWMCWSH (tested as crude clonal phage supernatant) [Phage-2181] | – | – | – | – | Anti-PSMA Fab signal in the presence of PSMA [3]: 0.0713; Anti-PSMA Fab (SEQ ID NOs: 19, 20) signal [4]: 1.64
26 | ITKWCTPAWMCAHL (cysteine pairing not given here; also: displayed on bacteriophage as fusion to pIII, tested as crude clonal phage supernatant) [Phage-2178] | – | – | – | – | Anti-PSMA Fab signal in the presence of PSMA [3]: 0.0904; Anti-PSMA Fab (SEQ ID NOs: 19, 20) signal [4]: 1.64
27 | IMKLCMPPWMCAAM (Clonal phage of the Peptide-180 library, tested as crude supernatant; not shown: fused to the pIII filament of the bacteriophage) [Phage-2148] | 0.0907 | 1.68 | – | – | –
28 | LIKWCTPPWMCEQL (tested as crude clonal phage supernatant) [Phage-2180] | – | – | – | – | Anti-PSMA Fab signal in the presence of PSMA [3]: 0.0655; Anti-PSMA Fab (SEQ ID NOs: 19, 20) signal [4]: 1.64
29 | VEHWCTPRWMCRGF (Clonal phage of the peptide-180 library, tested as crude supernatant; not shown: pIII of the bacteriophage, to which the peptide is fused) [Phage-2176] | – | – | 0.0605 | 1.64 | –
30 | GDRLCVPEWMCEML (Clonal phage of the peptide-180 library, tested as crude supernatant; not shown: pIII of the bacteriophage, to which the peptide is fused) [Phage-2171] | – | – | 0.0685 | 1.65 | –
31 | EPKLCRPAWMCVGM (tested as crude clonal phage supernatant) [Phage-2179] | – | – | – | – | Anti-PSMA Fab signal in the presence of PSMA [3]: 0.0704; Anti-PSMA Fab (SEQ ID NOs: 19, 20) signal [4]: 1.64
32 | ETKWCFPPWMCAGS (Clonal phage of the Peptide-180 library, tested as crude supernatant; not shown: fused to the pIII filament of the bacteriophage) [Phage-2159] | 0.337 | 1.66 | – | – | –
33 | ESMLCRPVWMCVGF (Clonal phage of the peptide-180 library, tested as crude supernatant; not shown: pIII of the bacteriophage, to which the peptide is fused) [Phage-2169] | – | – | 0.0711 | 1.65 | –
34 | EHKWCIPDWMCMVA (Clonal phage of the Peptide-180 library, tested as crude supernatant; not shown: fused to the pIII filament of the bacteriophage) [Phage-2153] | 0.0728 | 1.67 | – | – | –
35 | LDKWCTPEWMCWGI (Clonal phage of the Peptide-180 library, tested as crude supernatant; not shown: fused to the pIII filament of the bacteriophage) [Phage-2154] | 0.0536 | 1.67 | – | – | –
36 | EGRWCIPSWMCVGV (Clonal phage of the Peptide-180 library, tested as crude supernatant; not shown: fused to the pIII filament of the bacteriophage) [Phage-2155] | 0.0956 | 1.67 | – | – | –
37 | VIPWCIPEWMCTAS (Clonal phage of the peptide-180 library, tested as crude supernatant; not shown: pIII of the bacteriophage, to which the peptide is fused) [Phage-2175] | – | – | 0.0692 | 1.64 | –
38 | DVIRCTPDWMCTGF (Clonal phage of the Peptide-180 library, tested as crude supernatant; not shown: fused to the pIII filament of the bacteriophage) [Phage-2157] | 0.064 | 1.66 | – | – | –
39 | ITNWCKPAWMCEVS (Clonal phage of the Peptide-180 library, tested as crude supernatant; not shown: fused to the pIII filament of the bacteriophage) [Phage-2149] | 0.114 | 1.68 | – | – | –
40 | AMHWCIPKWMCETS (Clonal phage of the Peptide-180 library, tested as crude supernatant; not shown: fused to the pIII filament of the bacteriophage) [Phage-2160] | 0.141 | 1.66 | – | – | –
41 | VSKWCTPEWMCTGF (Clonal phage of the Peptide-180 library, tested as crude supernatant; not shown: fused to the pIII filament of the bacteriophage) [Phage-2156] | 0.0826 | 1.67 | – | – | –
